The values that follow come from patent US20090148466A1, “Process for the Preparation of Hypoallergenic Mosaic Antigens” (BIOMAY AG, priority 2003, published 2009).

The subject of data set [1] is grass pollen allergic patients. Nature of the data set: Skin prick test (immediate type skin reactions). The settings on record: standardized skin prick solution.
Experimental: SPTs (skin prick tests) were performed on the individuals' forearms. Twenty microliter aliquots containing 5 concentrations of rPhl p 2 and of Phl p 2-derived mosaic P2M (1 μg/ml, 2 μg/ml, 4 μg/ml, 8 μg/ml, 16 μg/ml) were applied. In addition, standardized skin prick solutions (timothy grass pollen extract and histamine) (Allergopharma, Reinbeck, Germany) were tested. Reactions were recorded 20 minutes after SPT by photography and by transferring the ballpoint pen-surrounded wheal area with a scotch tape to paper. The mean wheal diameter (Dm) was calculated by measuring the maximal longitudinal and transversal diameter and dividing their sum by 2 as described by Focke et al., 2001.
Data set [2] is described as follows: Characteristics of Phl p 2-derived synthetic peptides (isoelectric point). Format: physicochemical. The text has this:
Table 1: Characteristics of Phl p 2-derived synthetic peptides. […] Peptide 1 corresponds to SEQ ID NO:3, Peptide 3 corresponds to SEQ ID NO:4 and Peptide 2 corresponds to SEQ ID NO:5.

For data set [3], the system named is IgE antibodies in sera from grass pollen allergic patients. Nature of the data set: IgE reactivity by dot blot with sera from grass pollen allergic patients. Format: binding, human. To be noted: for IgE binding capacity (dot blot): sera from 12 timothy grass pollen allergic patients. Here is the method:
The allergenic activity of the Phl p 2-derived peptides was evaluated by comparing the IgE-reactivity of complete rPhl p 2 with the peptides by dot blot analysis (FIG. 1). Nitrocellulose-dotted Phl p 2-derived peptides (P1-P3), an immunologically unrelated major grass pollen allergen, rPhl p 5 (Vrtala S, Sperr W R, Reimitzer I, van Ree R, Laffer S, Müller WD, Valent P, Lechner K, Rumpold H, Kraft D, Scheiner 0, Valenta R. cDNA cloning of a major allergen from timothy grass (Phleum pratense) pollen; characterization of the recombinant Phl p V allergen. J. Immunol. 1993, 151: 4773-4781), and for control purposes, human serum albumin as well as a control peptide were exposed to sera from grass pollen allergic patients and to serum from a non-allergic individual.
Bound IgE antibodies were detected as described previously (Valenta R, Duchêne M, Ebner C, Valent P, Sillaber C, Deviller P, Ferreira F, Tejkl M, Edelmann H, Kraft D, Scheiner O. Profilins constitute a novel family of functional plant pan-allergens. J. Exp. Med. 1992, 175: 377-385).
(§1) The IgE binding capacity of purified Phl p 2 mosaic (P2M) was compared with that of Phl p 2 wildtype by dot blot experiments as described for the peptides using sera from twelve timothy grass pollen allergic patients (FIG. 7). […] Basophils from a grass pollen allergic patient were enriched by dextran sedimentation and exposed to increasing concentrations of purified rPhl p 2 or rPhl p 2 mosaic as described (Valent P, Besemer J, Muhm M, Majdic O; Lechner K, Bettelhei P. Interleukin 3 activates human blood basophils via high-affinity binding sites. Proc. Natl. Acad. Sci. USA 1989, 86: 5542-5546).

Data set [4] concerns Basophils from a grass pollen allergic patient. Put plainly: Basophil histamine release. The class given is cell-based, human.
From the text: as §1
Histamine released in the cell free supernatants was determined in triplicates by radioimmuno assay and is expressed as mean percentage of the total histamine content of the cells as described by Valent et al.

A further data set concerns serum IgE. To be noted: cited from earlier work.

As to `NCCc1c[nH]cn1` [Histamine, histamine], the mean wheal diameter in data set [1] (Individual 1) and in data set [1] (Individual 2) was 8 mm each time.

Consider “Peptide 2: synthetic Phl p 2-derived peptide; Table 1 prints aa 65-96, SEQ ID NO:4; text says aa 34-64 (REHGSDEWVAMTKGEGGVWTFDSEEPLQGPFNC) [synthetic Phl p 2-derived peptide; text says aa 34-64]”, for which the Isoelectric point in data set [2] is listed as 4.03.

“Peptide 3: synthetic Phl p 2-derived peptide; Table 1 prints aa 34-64, SEQ ID NO:5; text says aa 65-96 (CFRFLTEKGMKNVFDDVVPEKYTIGATYAPEE) [synthetic Phl p 2-derived peptide; text says aa 65-96]” displayed an Isoelectric point in data set [2] of 4.45.

B1: P2M: recombinant his-tagged mosaic protein: the three Phl p 2-derived peptides recombined in altered order 1, 3, 2 (SEQ ID NO:1) (protein)
chain: MVPKVTFTVEKGSNEKHLAVLVKYEGDTMAEVELFRFLTEKGMKNVFDDVVPEKYTIGATYAPEEREHGSDEWVAMTKGEGGVWTFDSEEPLQGPFNHHHHHH
modifications: His tag
For B1, the “IgE binding capacity (dot blot)” value in data set [3] is given as “no serum exhibited IgE reactivity”. The “reduced allergenic activity compared to the rPhl p 2 allergen” value in data set [4] (basophil histamine release) is “more than 1000 fold”.

B2: rPhl p 2: recombinantly produced wild type timothy grass pollen allergen Phl p 2, his-tagged (protein)
chain: MVPKVTFTVEKGSNEKHLAVLVKYEGDTMAEVELREHGSDEWVAMTKGEGGVWTFDSEEPLQGPFNFRFLTEKGMKNVFDDVVPEKYTIGATYAPEEHHHHHH
Take B2: in data set [3] (nitrocellulose-dotted, sera from 35 grass pollen allergic patients), the “IgE reactivity (dot blot)” value is listed as “Sera from all 35 grass pollen allergic patients showed IgE reactivity”. Further, in data set [3], the “IgE binding capacity (dot blot)” value is “Sera from all 12 grass pollen allergic patients contained IgE antibodies against rPhl p 2”. In addition, the “share of grass pollen allergic individuals whose serum IgE reacts” value in the data set on serum IgE was “about 70%”. In addition, the “concentration of maximal histamine release” value in data set [4] (basophils from a grass pollen allergic patient) was 10^−3 μg/ml.
